Measured values as given in patent US20210253718A1, “FRIZZLED5 PROTEIN-BINDING AGENTS” (Modmab Therapeutics Corporation, priority 2016, published 2021).
One block for each binder: values may come before it.

Target: T1, FZD8 cysteine-rich domain (CRD), MYC-tagged and GPI-anchored on CHO cells (human)
T1 sequence (chain, GPI anchor): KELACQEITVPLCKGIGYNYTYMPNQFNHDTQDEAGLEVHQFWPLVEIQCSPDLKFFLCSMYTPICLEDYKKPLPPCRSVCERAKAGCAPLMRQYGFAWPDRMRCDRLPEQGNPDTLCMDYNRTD
Test: flow cytometry, CHO-CRD cells

median fluorescence: 7.7
B1: Fab-2925 (Fab, V domains shown)
VH: EVQLVESGGGLVQPGGSLRLSCAASGFNLSYSSMHWVRQAPGKGLEWVASIYPSYGSTYYADSVKGRFTISADTSKNTAYLQMNSLRAEDTAVYYCARYGYFGLDYWGQGTLVTVSS
VL: DIQMTQSPSSLSASVGDRVTITCRASQSVSSAVAWYQQKPGKAPKLLIYSASSLYSGVPSRFSGSRSGTDFTLTISSLQPEDFATYYCQQAWVYASLFTFGQGTKVEIK

median fluorescence: 8.17
B2: Fab-2905 (Fab, V domains shown)
VH: EVQLVESGGGLVQPGGSLRLSCAASGFNLSYYYMHWVRQAPGKGLEWVASIYSSYSYTSYADSVKGRFTISADTSKNTAYLQMNSLRAEDTAVYYCARSGYALDYWGQGTLVTVSS
VL: DIQMTQSPSSLSASVGDRVTITCRASQSVSSAVAWYQQKPGKAPKLLIYSASSLYSGVPSRFSGSRSGTDFTLTISSLQPEDFATYYCQQSSWYYGYPFTFGQGTKVEIK
